Measured values as given in patent US20180030151A1 (MOGAM INSTITUTE FOR BIOMEDICAL RESEARCH, published 2018).
Read-outs that look alike come from different tables or passages of the source.

Assays:
Experiment in all cases: cell-based or functional assay
[1] = molecular target: T1, recombinant human TFPI (tissue factor pathway inhibitor) (human, UniProt P10646 29-304)
[2] = molecular target: T1, recombinant human TFPI (tissue factor …); remark: listed apart in the source
[3] = molecular target: T1, recombinant human TFPI (tissue factor …); remark: listed apart in the source
[4] = molecular target: T1, recombinant human TFPI (tissue factor …); remark: listed apart in the source
[5] = molecular target: T1, recombinant human TFPI (tissue factor …); remark: listed apart in the source
[6] = molecular target: T1, recombinant human TFPI (tissue factor …); remark: listed apart in the source
[7] = molecular target: T1, recombinant human TFPI (tissue factor …); remark: listed apart in the source
[8] = molecular target: T1, recombinant human TFPI (tissue factor …); remark: listed apart in the source
[9] = molecular target: T1, recombinant human TFPI (tissue factor …); remark: listed apart in the source
[10] = molecular target: T1, recombinant human TFPI (tissue factor …); remark: listed apart in the source

B1: clone 1023 (antibody, V domains shown)
VH: EVQLVESGGGLVKPGGSLRLSCAASGFTFSSYAMNWVRQAPGKGLEWVGTITTGGSYTYYADSVDGRFTISRDNAKNSLYLQMNSLRAEDTAVYYCARQDGNFLMDYWGQGTLVTVSS
VL: DVVMTQTPLSLPVTLGQPASISCKSSQSLLDIDGKTYLNWLQQRPGQSPKRLIYLVSKLDSGVPDRFTGSGSGTDFTLKISRVEAEDVGVYYCWQGTHFPFTFGQGTKVEIKR
notes: scFv on yeast at selection; human IgG4/kappa IgG as purified
- FXa assay OD, 10 nM Ab, 10 nM TFPI [1]: 0.459
- FXa assay OD, 20 nM Ab, 10 nM TFPI [1]: 0.682
- % of Normalized, TF/FVIIa/FX complex assay, Ab 1.56 nM [2]: 4.8%
- % of Normalized, TF/FVIIa/FX complex assay, Ab 3.13 nM [2]: 6%
- % of Normalized, TF/FVIIa/FX complex assay, Ab 6.25 nM [2]: 8.3%
- % of Normalized, TF/FVIIa/FX complex assay, Ab 12.5 nM [2]: 10.3%
- % of Normalized, TF/FVIIa/FX complex assay, Ab 25 nM [2]: 43.7%
- % of Normalized, TF/FVIIa/FX complex assay, Ab 50 nM [2]: 80.3%
- % of Normalized, TF/FVIIa/FX complex assay, Ab 100 nM [2]: 99.8%
- A405, TF/FVIIa/FX complex assay, Ab 1.56 nM [3]: 0.135
- A405, TF/FVIIa/FX complex assay, Ab 3.13 nM [3]: 0.16
- A405, TF/FVIIa/FX complex assay, Ab 6.25 nM [3]: 0.185
- A405, TF/FVIIa/FX complex assay, Ab 12.5 nM [3]: 0.29
- A405, TF/FVIIa/FX complex assay, Ab 25 nM [3]: 0.914
- A405, TF/FVIIa/FX complex assay, Ab 50 nM [3]: 0.938
- A405, TF/FVIIa/FX complex assay, Ab 100 nM [3]: 0.939
- A405, TF/FVIIa/FX complex assay, Ab 1.56 nM [4]: 0.041
- A405, TF/FVIIa/FX complex assay, Ab 3.13 nM [4]: 0.051
- A405, TF/FVIIa/FX complex assay, Ab 6.25 nM [4]: 0.071
- A405, TF/FVIIa/FX complex assay, Ab 12.5 nM [4]: 0.088
- A405, TF/FVIIa/FX complex assay, Ab 25 nM [4]: 0.371
- A405, TF/FVIIa/FX complex assay, Ab 50 nM [4]: 0.681
- A405, TF/FVIIa/FX complex assay, Ab 100 nM [4]: 0.846
- % of Normalized, TF/FVIIa/FX complex assay, Ab 1.56 nM [5]: 15.6%
- % of Normalized, TF/FVIIa/FX complex assay, Ab 3.13 nM [5]: 16.5%
- % of Normalized, TF/FVIIa/FX complex assay, Ab 6.25 nM [5]: 18.2%
- % of Normalized, TF/FVIIa/FX complex assay, Ab 12.5 nM [5]: 24.8%
- % of Normalized, TF/FVIIa/FX complex assay, Ab 25 nM [5]: 86.5%
- % of Normalized, TF/FVIIa/FX complex assay, Ab 50 nM [5]: 103%
- % of Normalized, TF/FVIIa/FX complex assay, Ab 100 nM [5]: 104%
- FXa assay % of FXa alone, 2.5 nM Ab, 10 nM TFPI [6]: 7.9%
- FXa assay % of FXa alone, 5 nM Ab, 10 nM TFPI [6]: 37.7%
- FXa assay % of FXa alone, 10 nM Ab, 10 nM TFPI [6]: 84.3%
- FXa assay % of FXa alone, 20 nM Ab, 10 nM TFPI [6]: 91.7%
- FXa assay OD, 2.5 nM Ab, 10 nM TFPI [6]: 0.064
- FXa assay OD, 5 nM Ab, 10 nM TFPI [6]: 0.306
- FXa assay OD, 10 nM Ab, 10 nM TFPI [6]: 0.684
- FXa assay OD, 20 nM Ab, 10 nM TFPI [6]: 0.745
- A405, TF/FVIIa/FX complex assay, Ab 1.56 nM [7]: 0.143
- A405, TF/FVIIa/FX complex assay, Ab 3.13 nM [7]: 0.152
- A405, TF/FVIIa/FX complex assay, Ab 6.25 nM [7]: 0.168
- A405, TF/FVIIa/FX complex assay, Ab 12.5 nM [7]: 0.228
- A405, TF/FVIIa/FX complex assay, Ab 25 nM [7]: 0.795
- A405, TF/FVIIa/FX complex assay, Ab 50 nM [7]: 0.947
- A405, TF/FVIIa/FX complex assay, Ab 100 nM [7]: 0.951
- FXa assay % of FXa alone, 2.5 nM Ab, 10 nM TFPI [8]: 7.3%
- FXa assay % of FXa alone, 5 nM Ab, 10 nM TFPI [8]: 25.2%
- FXa assay % of FXa alone, 10 nM Ab, 10 nM TFPI [8]: 83.6%
- FXa assay % of FXa alone, 20 nM Ab, 10 nM TFPI [8]: 85.5%
- FXa assay OD, 2.5 nM Ab, 10 nM TFPI [8]: 0.06
- FXa assay OD, 5 nM Ab, 10 nM TFPI [8]: 0.208
- FXa assay OD, 10 nM Ab, 10 nM TFPI [8]: 0.691
- FXa assay OD, 20 nM Ab, 10 nM TFPI [8]: 0.707
- % of Normalized, TF/FVIIa/FX complex assay, Ab 1.56 nM [9]: 14.7%
- % of Normalized, TF/FVIIa/FX complex assay, Ab 3.13 nM [9]: 17.5%
- % of Normalized, TF/FVIIa/FX complex assay, Ab 6.25 nM [9]: 20.2%
- % of Normalized, TF/FVIIa/FX complex assay, Ab 12.5 nM [9]: 31.6%
- % of Normalized, TF/FVIIa/FX complex assay, Ab 25 nM [9]: 99.8%
- % of Normalized, TF/FVIIa/FX complex assay, Ab 50 nM [9]: 102%
- % of Normalized, TF/FVIIa/FX complex assay, Ab 100 nM [9]: 103%
- FXa assay % of FXa alone, 2.5 nM Ab, 10 nM TFPI [10]: 8.7%
- FXa assay % of FXa alone, 5 nM Ab, 10 nM TFPI [10]: 47.3%
- FXa assay % of FXa alone, 10 nM Ab, 10 nM TFPI [10]: 89.6%
- FXa assay % of FXa alone, 20 nM Ab, 10 nM TFPI [10]: 101%
- FXa assay OD, 2.5 nM Ab, 10 nM TFPI [10]: 0.042
- FXa assay OD, 5 nM Ab, 10 nM TFPI [10]: 0.229
- FXa assay OD, 10 nM Ab, 10 nM TFPI [10]: 0.433
- FXa assay OD, 20 nM Ab, 10 nM TFPI [10]: 0.488
